Results from paper PMC4102767.

Assays:
Dpb11 [1] = biological target: Dpb11 (UniProt P47027); assay: Flag purification, SILAC quantitative MS; conditions: reference: wild type; sites S486
Dpb11 [2] = biological target: Dpb11 (UniProt P47027); assay: anti-Flag co-IP, Western blot; conditions: reference: wild type (undamaged or MMS); sites S486

Row | fold change (Dpb11 [1]) | Substance | binding against the reference (Dpb11 [2])
1 | weaker | Slx4 (from UniProt Q12098) S486A | –
2 | – | Slx4 (from UniProt Q12098) S486A (undamaged or MMS) | weaker
